{
  "source": "paper PMC4996945",
  "about": "“Crosstalk between MSH2–MSH3 and polβ promotes trinucleotide repeat expansion during base excision repair”",
  "binders": {"B1": {"name": "CAG-duplex (80) with one 8-oxo-G (dsDNA)", "DNA 1": "CAAGCACGTTGACTACCGTCCAGCAGCAGCAGCAGCAGCAGCAGCAGCAGCAGCAGCAGTTTGAGGCAGAGTCCGAACAC", "DNA 2": "GTGTTCGGACTCTGCCTCAAACTGCTGCTGCTGCTGCTGCTGCTGCTGCTGCTGCTGCTGGACGGTAGTCAACGTGCTTG", "modifications": "one 8-oxo-G (stated position 17, exact G not marked in text); complement not given"}},
  "molecular_target": "MSH2;MSH3 (Homo sapiens;Homo sapiens, UniProt P43246;P20585 1-934;1-1137, |)",
  "assay": "gel filtration; 1:1:1 OGG1, MSH2-MSH3, DNA; MSH2-MSH3-DNA peak; 10 mM HEPES pH 8.1, 110 mM NaCl, 1 mM DTT, 0.1 mg/ml BSA, 10% glycerol, 0.25% inositol, 5 mM Mg2+, 2 mM ATP, 2 mM ADP; on ice (EMSA 10 min, gel at 4 °C; footprint binding 15 min, DNase I at 37 °C); 25 nM DNA",
  "settings": "protein: recombinant;recombinant; tags: ;His; copies: 1;1",
  "data": [
    {"binder": "B1", "values": [
      {"measurement": "binding result", "value": "binds"}
    ]}
  ]
}
